Assays:
[1] = system: HeLa Kyoto; experiment: solubility in G1/S (NP-40 vs SDS abundance) (log2 ratio); higher = more soluble; details: cell cycle stage: G1/S
[2] = system: HeLa Kyoto; experiment: melting temperature (median over replicates), in situ; higher = more thermally stable
[3] = system: HeLa Kyoto; experiment: solubility change mitosis vs G1/S (difference of NP-40 vs SDS log2 ratios) (log2 ratio difference); higher = more soluble in mitosis
[4] = system: HeLa Kyoto; experiment: thermal stability score vs G1/S (z-score of summed log2 fold changes over temperatures); higher = more thermally stable than in G1/S
[5] = cell cycle stage: early G1 (4.5 h after nocodazole release)
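Wherever melting temperature (median over replicates), in situ is given: HeLa Kyoto cells synchronized by double thymidine or nocodazole block, proteins quantified by TMT10plex mass spectrometry, three independent biological replicates.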
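Wherever solubility change mitosis vs G1/S (difference of NP-40 vs SDS log2 ratios) is given: synchronized HeLa Kyoto cells (double thymidine block for G1/S, nocodazole release for mitosis), protein amounts in NP-40 versus SDS lysates quantified by mass spectrometry, three biological replicates.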
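Wherever solubility in G1/S (NP-40 vs SDS abundance) is given: HeLa Kyoto cells arrested at G1/S by double thymidine block, proteins quantified by TMT10plex mass spectrometry in mild NP-40 versus SDS extracts, three biological replicates.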
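Wherever thermal stability score vs G1/S (z-score of summed log2 fold changes over temperatures) is given: synchronized HeLa Kyoto cells, proteins quantified by TMT10plex mass spectrometry, three biological replicates, mitosis taken 0.5 h after nocodazole release, G1/S directly after double thymidine block.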

Sequence	solubility in G1/S (log2) [1]	melting temperature ([2]; cell cycle stage: G1/S) [°C]	melting temperature ([2]; cell cycle stage: mitosis) [°C]	solubility change mitosis (log2) [3]	thermal stability score [4, 5]	thermal stability score ([4]; cell cycle stage: mitosis)
MAGNFDSEERSSWYWGRLSRQEAVALLQGQRHGVFLVRDSSTSPGDYVLSVSENSRVSHYIINSSGPRPPVPPSPAQPPPGVSPSRLRIGDQEFDSLPALLEFYKIHYLDTTTLIEPVSRSRQGSGVILRQEEAEYVRALFDFNGNDEEDLPFKKGDILRIRDKPEEQWWNAEDSEGKRGMIPVPYVEKYRPASASVSALIGGNQEGSHPQPLGGPEPGPYAQPSVNTPLPNLQNGPIYARVIQKRVPNAYDKTALALEVGELVKVTKINVSGQWEGECNGKRGHFPFTHVRLLDQQNPDEDFS [CRK]	0.342	50.6	51.5	-0.104	-0.547	-1.21
MAGPELLLDSNIRLWVVLPIVIITFFVGMIRHYVSILLQSDKKLTQEQVSDSQVLIRSRVLRENGKYIPKQSFLTRKYYFNNPEDGFFKKTKRKVVPPSPMTDPTMLTDMMKGNVTNVLPMILIGGWINMTFSGFVTTKVPFPLTLRFKPMLQQGIELLTLDASWVSSASWYFLNVFGLRSIYSLILGQDNAADQSRMMQEQMTGAAMAMPADTNKAFKTEWEALELTDHQWALDDVEEELMAKDLHFEGMFKKELQTSIF [EMC3]	-0.174	54.1	53.7	-0.25	-0.437	-0.599
MAGPGPGPGDPDEQYDFLFKLVLVGDASVGKTCVVQRFKTGAFSERQGSTIGVDFTMKTLEIQGKRVKLQIWDTAGQERFRTITQSYYRSANGAILAYDITKRSSFLSVPHWIEDVRKYAGSNIVQLLIGNKSDLSELREVSLAEAQSLAEHYDILCAIETSAKDSSNVEEAFLRVATELIMRHGGPLFSEKSPDHIQLNSKDIGEGWGCGC [RAB43]	-0.224	55.1	54.6	0.296	-0.0567	0.366
MAGQGLPLHVATLLTGLLECLGFAGVLFGWPSLVFVFKNEDYFKDLCGPDAGPIGNATGQADCKAQDERFSLIFTLGSFMNNFMTFPTGYIFDRFKTTVARLIAIFFYTTATLIIAFTSAGSAVLLFLAMPMLTIGGILFLITNLQIGNLFGQHRSTIITLYNGAFDSSSAVFLIIKLLYEKGISLRASFIFISVCSTWHVARTFLLMPRGHIPYPLPPNYSYGLCPGNGTTKEEKETAEHENRELQSKEFLSAKEETPGAGQKQELRSFWSYAFSRRFAWHLVWLSVIQLWHYLFIGTLNSLLTNMAGGDMARVSTYTNAFAFTQFGVLCAPWNGLLMDRLKQKYQKEARKTGSSTLAVALCSTVPSLALTSLLCLGFALCASVPILPLQYLTFILQVISRSFLYGSNAAFLTLAFPSEHFGKLFGLVMALSAVVSLLQFPIFTLIKGSLQNDPFYVNVMFMLAILLTFFHPFLVYRECRTWKESPSAIA [SLC43A3]	0.205	58.3	58.2	-0.114	-0.857	-2.36
MAGYLRVVRSLCRASGSRPAWAPAALTAPTSQEQPRRHYADKRIKVAKPVVEMDGDEMTRIIWQFIKEKLILPHVDIQLKYFDLGLPNRDQTDDQVTIDSALATQKYSVAVKCATITPDEARVEEFKLKKMWKSPNGTIRNILGGTVFREPIICKNIPRLVPGWTKPITIGRHAHGDQYKATDFVADRAGTFKMVFTPKDGSGVKEWEVYNFPAGGVGMGMYNTDESISGFAHSCFQYAIQKKWPLYMSTKNTILKAYDGRFKDIFQEIFDKHYKTDFDKNKIWYEHRLIDDMVAQVLKSSGGFVWACKNYDGDVQSDILAQGFGSLGLMTSVLVCPDGKTIEAEAAHGTVTRHYREHQKGRPTSTNPIASIFAWTRGLEHRGKLDGNQDLIRFAQMLEKVCVETVESGAMTKDLAGCIHGLSNVKLNEHFLNTTDFLDTIKSNLDRALGRQ [IDH2]	0.137	53.7	54.1	-0.113	-0.161	0.659
MAILFAVVARGTTILAKHAWCGGNFLEVTEQILAKIPSENNKLTYSHGNYLFHYICQDRIVYLCITDDDFERSRAFNFLNEIKKRFQTTYGSRAQTALPYAMNSEFSSVLAAQLKHHSENKGLDKVMETQAQVDELKGIMVRNIDLVAQRGERLELLIDKTENLVDSSVTFKTTSRNLARAMCMKNLKLTIIIIIVSIVFIYIIVSPLCGGFTWPSCVKK [VAMP7]	-0.0498	54.4	53.1	-0.283	1.62	1.41
MAKAKKVGARRKASGAPAGARGGPAKANSNPFEVKVNRQKFQILGRKTRHDVGLPGVSRARALRKRTQTLLKEYKERDKSNVFRDKRFGEYNSNMSPEEKMMKRFALEQQRHHEKKSIYNLNEDEELTHYGQSLADIEKHNDIVDSDSDAEDRGTLSAELTAAHFGGGGGLLHKKTQQEGEEREKPKSRKELIEELIAKSKQEKRERQAQREDALELTEKLDQDWKEIQTLLSHKTPKSENRDKKEKPKPDAYDMMVRELGFEMKAQPSNRMKTEAELAKEEQEHLRKLEAERLRRMLGKDEDENVKKPKHMSADDLNDGFVLDKDDRRLLSYKDGKMNVEEDVQEEQSKEASDPESNEEEGDSSGGEDTEESDSPDSHLDLESNVESEEENEKPAKEQRQTPGKGLISGKERAGKATRDELPYTFAAPESYEELRSLLLGRSMEEQLLVVERIQKCNHPSLAEGNKAKLEKLFGFLLEYVGDLATDDPPDLTVIDKLVVHLYHLCQMFPESASDAIKFVLRDAMHEMEEMIETKGRAALPGLDVLIYLKITGLLFPTSDFWHPVVTPALVCLSQLLTKCPILSLQDVVKGLFVCCLFLEYVALSQRFIPELINFLLGILYIATPNKASQGSTLVHPFRALGKNSELLVVSAREDVATWQQSSLSLRWASRLRAPTSTEANHIRLSCLAVGLALLKRCVLMYGSLPSFHAIMGPLQALLTDHLADCSHPQELQELCQSTLTEMESQKQLCRPLTCEKSKPVPLKLFTPRLVKVLEFGRKQGSSKEEQERKRLIHKHKREFKGAVREIRKDNQFLARMQLSEIMERDAERKRKVKQLFNSLATQEGEWKALKRKKFKK [NOP14]	-1.66	49.2	50.4	0.737	0.586	1.66
MAKKTYDLLFKLLLIGDSGVGKTCVLFRFSDDAFNTTFISTIGIDFKIKTVELQGKKIKLQIWDTAGQERFHTITTSYYRGAMGIMLVYDITNGKSFENISKWLRNIDEHANEDVERMLLGNKCDMDDKRVVPKGKGEQIAREHGIRFFETSAKANINIEKAFLTLAEDILRKTPVKEPNSENVDISSGGGVTGWKSKCC [RAB10]	-0.153	57.5	56.5	-0.146	-0.265	-1.23
MAKPSHSSYVLQQLNNQREWGFLCDCCIAIDDIYFQAHKAVLAACSSYFRMFFMNHQHSTAQLNLSNMKISAECFDLILQFMYLGKIMTAPSSFEQFKVAMNYLQLYNVPDCLEDIQDADCSSSKCSSSASSKQNSKMIFGVRMYEDTVARNGNEANRWCAEPSSTVNTPHNREADEESLQLGNFPEPLFDVCKKSSVSKLSTPKERVSRRFGRSFTCDSCGFGFSCEKLLDEHVLTCTNRHLYQNTRSYHRIVDIRDGKDSNIKAEFGEKDSSKTFSAQTDKYRGDTSQAADDSASTTGSRKSSTVESEIASEEKSRAAERKRIIIKMEPEDIPTDELKDFNIIKVTDKDCNESTDNDELEDEPEEPFYRYYVEEDVSIKKSGRKTLKPRMSVSADERGGLENMRPPNNSSPVQEDAENASCELCGLTITEEDLSSHYLAKHIENICACGKCGQILVKGRQLQEHAQRCGEPQDLTMNGLGNTEEKMDLEENPDEQSEIRDMFVEMLDDFRDNHYQINSIQKKQLFKHSACPFRCPNCGQRFETENLVVEHMSSCLDQDMFKSAIMEENERDHRRKHFCNLCGKGFYQRCHLREHYTVHTKEKQFVCQTCGKQFLRERQLRLHNDMHKGMARYVCSICDQGNFRKHDHVRHMISHLSAGETICQVCFQIFPNNEQLEQHMDVHLYTCGICGAKFNLRKDMRSHYNAKHLKRT [ZBTB1]	-0.369		51	-0.0122	2	3.65
MAKTYDYLFKLLLIGDSGVGKTCVLFRFSEDAFNSTFISTIGIDFKIRTIELDGKRIKLQIWDTAGQERFRTITTAYYRGAMGIMLVYDITNEKSFDNIRNWIRNIEEHASADVEKMILGNKCDVNDKRQVSKERGEKLALDYGIKFMETSAKANINVENAFFTLARDIKAKMDKKLEGNSPQGSNQGVKITPDQQKRSSFFRCVLL [RAB8A]	-0.0996	56.7	55.4	-0.103	2.59	1.39
MALAARLWRLLPFRRGAAPGSRLPAGTSGSRGHCGPCRFRGFEVMGNPGTFKRGLLLSALSYLGFETYQVISQAAVVHATAKVEEILEQADYLYESGETEKLYQLLTQYKESEDAELLWRLARASRDVAQLSRTSEEEKKLLVYEALEYAKRALEKNESSFASHKWYAICLSDVGDYEGIKAKIANAYIIKEHFEKAIELNPKDATSIHLMGIWCYTFAEMPWYQRRIAKMLFATPPSSTYEKALGYFHRAEQVDPNFYSKNLLLLGKTYLKLHNKKLAAFWLMKAKDYPAHTEEDKQIQTEAAQLLTSFSEKN [RMDN1]	0.16	52	52.9	0.0519	-0.229	-1.17
MALASVLERPLPVNQRGFFGLGGRADLLDLGPGSLSDGLSLAAPGWGVPEEPGIEMLHGTTTLAFKFRHGVIVAADSRATAGAYIASQTVKKVIEINPYLLGTMAGGAADCSFWERLLARQCRIYELRNKERISVAAASKLLANMVYQYKGMGLSMGTMICGWDKRGPGLYYVDSEGNRISGATFSVGSGSVYAYGVMDRGYSYDLEVEQAYDLARRAIYQATYRDAYSGGAVNLYHVREDGWIRVSSDNVADLHEKYSGSTP [PSMB5]	-0.00915	63.3	61.5	-0.142	-2.01	-3.9
MALDFLAGCAGGVAGVLVGHPFDTVKVRLQVQSVEKPQYRGTLHCFKSIIKQESVLGLYKGLGSPLMGLTFINALVFGVQGNTLRALGHDSPLNQFLAGAAAGAIQCVICCPMELAKTRLQLQDAGPARTYKGSLDCLAQIYGHEGLRGVNRGMVSTLLRETPSFGVYFLTYDALTRALGCEPGDRLLVPKLLLAGGTSGIVSWLSTYPVDVVKSRLQADGLRGAPRYRGILDCVHQSYRAEGWRVFTRGLASTLLRAFPVNAATFATVTVVLTYARGEEAGPEGEAVPAAPAGPALAQPSSL [SLC25A29]	0.0296	53.2	52.3	-0.0388	-0.402	-0.997

From the supplement of paper PMC5998384
